Tests used:
[1] = molecular target: SpRadA K101A point mutant (Streptococcus pneumoniae) (UniProt Q8DRP0); test: negative-stain electron microscopy
[2] = molecular target: SpRadA helicase (Streptococcus pneumoniae RadA), full length (Streptococcus pneumoniae) (UniProt Q8DRP0); test: negative-stain electron microscopy
SpRecA = SpRecA (Streptococcus pneumoniae, UniProt P0A452 1-388); test: fluorescence anisotropy

“SpRadA K101A point mutant (from UniProt Q8DRP0 1-420) (enzyme)” was tested, and the stoichiometry N [1] was 6.

With “SpRadA helicase (Streptococcus pneumoniae RadA), full length (from UniProt Q8DRP0 1-420) (enzyme)” the stoichiometry N [2] was 6.

B1: T65 (polydT 65-mer) (ssDNA)
DNA: TTTTTTTTTTTTTTTTTTTTTTTTTTTTTTTTTTTTTTTTTTTTTTTTTTTTTTTTTTTTTTTTT
B1: binds (SpRecA).

— article PMC10085707
